Laboratory results from the supplement of paper PMC9732359.
± gives the uncertainty stated by the source.

Assay: protein stability index of a GFP-peptide fusion (yeast GPS) (PSI 1-4); higher = more stable; sorted into four equal gates, so the index is relative within each strain
In short: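 Plasmids isolated from each sorting gate were PCR-amplified and Illumina-sequenced, and barcodes assigned the reads to strains. The gates, four of equal size, were set by GFP/Cherry fluorescence ratio on mid-log cultures in leucine-free medium. These cultures were yeast carrying a pooled library of tiled 17-residue yeast protein peptides fused downstream of GFP on a plasmid that also expresses Cherry. The protein stability index is the sum of every gate's read frequency times its gate number.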

Sequence | protein stability index (doa10∆) | protein stability index (pdr5∆) | protein stability index (san1∆) | protein stability index (ubr1∆)
SLRSNVVVAETSPEKKD [YAR002W/NUP60] | 2.23 ± 0.05 | 2.63 ± 0.063 | 2.21 ± 0.069 | 2.4 ± 0.061
SSDALSKEKANFLETIA [SIR4] | 1.49 ± 0.057 | 1.68 ± 0.046 | 1.38 ± 0.091 | 1.52 ± 0.048
DKLSVSEISDGKLKRCS [SIN4] | 3.27 ± 0.15 | 3.38 ± 0.13 | 3.15 ± 0.1 | 3.6 ± 0.11
QKDQDGRIPLHWSVSFQ [NAS6] | 3.29 ± 0.093 | 3.33 ± 0.079 | 3 ± 0.13 | 3.06 ± 0.053
TRVHQLMLEDAVTEREV [MCD1] | 3.35 ± 0.22 | 2.92 ± 0.16 | 2.36 ± 0.23 | 2.89 ± 0.12
SNSANVSSPESEKNKRQ [ITC1] | 2.93 ± 0.06 | 3.1 ± 0.045 | 2.95 ± 0.036 | 3.09 ± 0.033
ESITKAMEFIFGNSLIC [SMC2] | 2.46 ± 0.071 | 1.55 ± 0.066 | 1.39 ± 0.092 | 1.89 ± 0.046
FFMSERSSRLHIVYSLL [YML103C/NUP188] | 1.91 ± 0.06 | 2.33 ± 0.079 | 1.55 ± 0.11 | 2.08 ± 0.053
EMVENSSENNQIILAYI [SRP68] | 3.21 ± 0.1 | 3.11 ± 0.088 | 2.77 ± 0.08 | 3.35 ± 0.062
KIAYRGVKDCQEGLITT [SSN2] | 2.08 ± 0.23 |  | 2.91 ± 0.22 | 2.7 ± 0.22
MTAVRRSTRIRTKSQVI [IRR1] | 2.9 ± 0.15 | 3.23 ± 0.081 | 3.42 ± 0.077 | 3.38 ± 0.1
ESDGRMFIEEPTRMVRV [SRP54] | 2.77 ± 0.082 | 2.99 ± 0.11 | 2.83 ± 0.099 | 2.73 ± 0.054
AGRGFTLAEVKAAGLTA [RPL13A] | 2.27 ± 0.073 | 2.5 ± 0.071 | 1.56 ± 0.093 | 1.77 ± 0.044
LIAEETNNKKLLEKANN [SMC3] | 2.41 ± 0.055 | 2.68 ± 0.075 | 2.38 ± 0.073 | 3.32 ± 0.063
EATAASHERFFLSQGLH [CSN12] | 1.43 ± 0.16 | 1.28 ± 0.1 | 1.09 ± 0.24 | 1.35 ± 0.18
NFESISARSSVHESLVT [SRB8] | 2.49 ± 0.052 | 2.1 ± 0.039 | 2.17 ± 0.062 | 2.26 ± 0.027
HITSVPISAVLRGCKFL [GRR1] | 1.77 ± 0.044 | 1.66 ± 0.048 | 1.86 ± 0.064 | 2.05 ± 0.037
QANSNLTLLERKWVIFI [NUT1] | 1.85 ± 0.055 | 1.92 ± 0.044 | 1.67 ± 0.094 | 2.19 ± 0.061
ESSYTEVTKLLKNEGID [SMC4] | 3.1 ± 0.082 | 3.17 ± 0.15 |  | 3.49 ± 0.098
GRLRNKSHKQTIVTGGG [RPP1] | 2.57 ± 0.093 | 2.89 ± 0.081 | 2.56 ± 0.073 | 2.92 ± 0.074

Sequence | protein stability index (doa10∆) | protein stability index (pdr5∆) | protein stability index (san1∆) | protein stability index (ubr1∆)
PNIHQNLLPKKSAKATK [HTA1] | 2.53 ± 0.093 | 2.66 ± 0.082 | 2.69 ± 0.1 | 2.49 ± 0.061
FVIPALPAAVSKSLQES [RPC82] | 1.8 ± 0.1 | 1.69 ± 0.14 | 2.58 ± 0.085 | 2.04 ± 0.12
QDLSRNTLGKGQNCLDI [SNU114] | 3.35 ± 0.12 | 3.28 ± 0.12 | 3.28 ± 0.16 | 3.61 ± 0.15
EAAKPSLSFGSGSAGAN [YJL041W/NSP1] | 2.83 ± 0.11 | 2.81 ± 0.13 | 3.02 ± 0.13 | 3 ± 0.071
HNGSHRTVAGFSNVELP [ARP7] | 3.1 ± 0.071 | 2.83 ± 0.07 | 2.72 ± 0.085 | 2.8 ± 0.048
KILMYQYNIPPEREVLV [RRP6] | 1.78 ± 0.075 | 2.04 ± 0.077 | 1.77 ± 0.2 | 1.72 ± 0.087
QWLNNALKRSYGIFGEG [POP8] | 2.8 ± 0.08 | 3.02 ± 0.059 | 3.08 ± 0.07 | 3.15 ± 0.071
GHSQFTSHYQNYHPNAS [RPN4] | 2.56 ± 0.049 | 2.44 ± 0.044 | 2.15 ± 0.09 | 2.22 ± 0.038
GGFTAYGGADYGEATSP [RPO21] | 1.79 ± 0.093 | 1.9 ± 0.069 | 1.98 ± 0.099 | 2.01 ± 0.068
IQQLHSVLNPFLLRRVK [ISW2] | 2.06 ± 0.061 | 1.99 ± 0.05 | 2.2 ± 0.059 | 2.37 ± 0.041
QVSINSNKILVYESEME [YIL149C/MLP2] | 2.3 ± 0.11 | 3 ± 0.16 | 1.71 ± 0.21 | 2.92 ± 0.16
VARFLHFNGIRRLDALV [ITC1] | 3.44 ± 0.16 | 3.45 ± 0.11 | 3.41 ± 0.058 | 3.35 ± 0.08
IDYKLRVLTQDGRVYIG [SMB1] | 2.49 ± 0.09 | 2.71 ± 0.076 | 1.67 ± 0.11 | 2.5 ± 0.048
YSSVAGTVSRVNRLLSV [RRP4] | 1.74 ± 0.036 | 1.77 ± 0.038 | 1.82 ± 0.053 | 1.8 ± 0.03
VSYMMPSLYRLLNILIT [SRB8] | 1.22 ± 0.12 | 1.21 ± 0.07 | 1.1 ± 0.12 | 1.3 ± 0.057
SRPGQSGRCDGYILEGE [RPS8A] | 3.38 ± 0.19 | 3.49 ± 0.17 | 3.3 ± 0.17 | 3.38 ± 0.049
TLLYEQIIQRDKINKYS [SNF5] | 3.1 ± 0.08 | 3.35 ± 0.089 | 3.19 ± 0.059 | 2.27 ± 0.072
IPPTFDKGAVGPNNFIW [MED4] | 3.22 ± 0.091 | 3.01 ± 0.084 | 2.77 ± 0.082 | 3.14 ± 0.11
QSDLEIITQYVFESLEI [ARP9] | 2.35 ± 0.067 | 3.12 ± 0.07 | 2.52 ± 0.082 | 3.01 ± 0.08
